Source: the supplement of paper PMC11316812
± gives the standard deviation of the averaged measurements.

Key:
hTERT-HMEC = assay: percentage of EdU-negative (G0-arrested) nuclei per well, 72 h; higher = more G0 arrest; details: reference: sequence is the full UniProt precursor, the tested protein was the secreted form or ectodomain
MCF7 = assay: as above; details: reference: sequence is the full UniProt precursor, the tested protein was the secreted form or ectodomain
[1] = protein concentration 0.0225 µM
[2] = protein concentration 0.0257143 µM
[3] = protein concentration 0.257143 µM
[4] = protein concentration 0.0295 µM
[5] = protein concentration 0.03125 µM
[6] = protein concentration 0.3125 µM
[7] = protein concentration 0.025165 µM
[8] = protein concentration 0.25165 µM
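Further: secreted proteins added to cultured cells, EdU pulse at the end, nuclei found by Hoechst imaging, EdU status from nuclear versus surrounding ring intensity ratio, PBS as neutral control.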

MVSALRGAPLIRVHSSPVSSPSVSGPRRLVSCLSSQSSALSQSGGGSTSAAGIEARSRALRRRWCPAGIMLLALVCLLSCLLPSSEAKLYGRCELARVLHDFGLDGYRGYSLADWVCLAYFTSGFNAAALDYEADGSTNNGIFQINSRRWCSNLTPNVPNVCRMYCSDLLNPNLKDTVICAMKITQEPQGLGYWEAWRHHCQGKDLTEWVDGCDF [Q8IXA5]
percentage of EdU-negative (hTERT-HMEC; [1]): 4.64 ± 0.051%
percentage of EdU-negative (hTERT-HMEC; protein concentration 0.225 µM): 10 ± 1.4%
percentage of EdU-negative (MCF7; [1]): 23.7 ± 1.4%
percentage of EdU-negative (MCF7; protein concentration 0.225 µM): 23.6 ± 2.9%

MVFLPLKWSLATMSFLLSSLLALLTVSTPSWCQSTEASPKRSDGTPFPWNKIRLPEYVIPVHYDLLIHANLTTLTFWGTTKVEITASQPTSTIILHSHHLQISRATLRKGAGERLSEEPLQVLEHPRQEQIALLAPEPLLVGLPYTVVIHYAGNLSETFHGFYKSTYRTKEGELRILASTQFEPTAARMAFPCFDEPAFKASFSIKIRREPRHLAISNMPLVKSVTVAEGLIEDHFDVTVKMSTYLVAFIISDFESVSKITKSGVKVSVYAVPDKINQADYALDAAVTLLEFYEDYFSIPYPLPKQDLAAIPDFQSGAMENWGLTTYRESALLFDAEKSSASSKLGITMTVAHELAHQWFGNLVTMEWWNDLWLNEGFAKFMEFVSVSVTHPELKVGDYFFGKCFDAMEVDALNSSHPVSTPVENPAQIREMFDDVSYDKGACILNMLREYLSADAFKSGIVQYLQKHSYKNTKNEDLWDSMASICPTDGVKGMDGFCSRSQHSSSSSHWHQEGVDVKTMMNTWTLQKGFPLITITVRGRNVHMKQEHYMKGSDGAPDTGYLWHVPLTFITSKSDMVHRFLLKTKTDVLILPEEVEWIKFNVGMNGYYIVHYEDDGWDSLTGLLKGTHTAVSSNDRASLINNAFQLVSIGKLSIEKALDLSLYLKHETEIMPVFQGLNELIPMYKLMEKRDMNEVETQFKAFLIRLLRDLIDKQTWTDEGSVSERMLRSQLLLLACVHNYQPCVQRAEGYFRKWKESNGNLSLPVDVTLAVFAVGAQSTEGWDFLYSKYQFSLSSTEKSQIEFALCRTQNKEKLQWLLDESFKGDKIKTQEFPQILTLIGRNPVGYPLAWQFLRKNWNKLVQKFELGSSSIAHMVMGTTNQFSTRTRLEEVKGFFSSLKENGSQLRCVQQTIETIEENIGWMDKNFDKIRVWLQSEKLERM [Q9NZ08]
percentage of EdU-negative (hTERT-HMEC; [1]): 5.43 ± 0.72%
percentage of EdU-negative (hTERT-HMEC; protein concentration 0.225 µM): 9.42 ± 1.9%
percentage of EdU-negative (MCF7; [1]): 28.5 ± 2.6%
percentage of EdU-negative (MCF7; protein concentration 0.225 µM): 25.9 ± 1.9%

MERVQPLEENVGNAARPRFERNKLLLVASVIQGLGLLLCFTYICLHFSALQVSHRYPRIQSIKVQFTEYKKEKGFILTSQKEDEIMKVQNNSVIINCDGFYLISLKGYFSQEVNISLHYQKDEEPLFQLKKVRSVNSLMVASLTYKDKVYLNVTTDNTSLDDFHVNGGELILIHQNPGEFCVL
percentage of EdU-negative (hTERT-HMEC; [2]): 5.74 ± 1.2%
percentage of EdU-negative (hTERT-HMEC; [3]): 5.19 ± 1.2%
percentage of EdU-negative (MCF7; [2]): 23.4 ± 0.97%
percentage of EdU-negative (MCF7; [3]): 27.27 ± 0.14%

MLGLPWKGGLSWALLLLLLGSQILLIYAWHFHEQRDCDEHNVMARYLPATVEFAVHTFNQQSKDYYAYRLGHILNSWKEQVESKTVFSMELLLGRTRCGKFEDDIDNCHFQESTELNNTFTCFFTISTRPWMTQFSLLNKTCLEGFH [Q9H4G1]
percentage of EdU-negative (hTERT-HMEC; [4]): 4.64 ± 0.079%
percentage of EdU-negative (hTERT-HMEC; protein concentration 0.295 µM): 4.42 ± 0.36%
percentage of EdU-negative (MCF7; [4]): 27.1 ± 2.6%
percentage of EdU-negative (MCF7; protein concentration 0.295 µM): 28.28 ± 0.082%

MAAPALSWRLPLLILLLPLATSWASAAVNGTSQFTCFYNSRANISCVWSQDGALQDTSCQVHAWPDRRRWNQTCELLPVSQASWACNLILGAPDSQKLTTVDIVTLRVLCREGVRWRVMAIQDFKPFENLRLMAPISLQVVHVETHRCNISWEISQASHYFERHLEFEARTLSPGHTWEEAPLLTLKQKQEWICLETLTPDTQYEFQVRVKPLQGEFTTWSPWSQPLAFRTKPAALGKDTIPWLGHLLVGLSGAFGFIILVYLLINCRNTGPWLKKVLKCNTPDPSKFFSQLSSEHGGDVQKWLSSPFPSSSFSPGGLAPEISPLEVLERDKVTQLLLQQDKVPEPASLSSNHSLTSCFTNQGYFFFHLPDALEIEACQVYFTYDPYSEEDPDEGVAGAPTGSSPQPLQPLSGEDDAYCTFPSRDDLLLFSPSLLGGPSPPSTAPGGSGAGEERMPPSLQERVPRDWDPQPLGPPTPGVPDLVDFQPPPELVLREAGEEVPDAGPREGVSFPWSRPPGQGEFRALNARLPLNTDAYLSLQELQGQDPTHLV
percentage of EdU-negative (hTERT-HMEC; [5]): 4.64 ± 0.89%
percentage of EdU-negative (hTERT-HMEC; [6]): 4.91 ± 0.7%
percentage of EdU-negative (MCF7; [5]): 25.8 ± 3.7%
percentage of EdU-negative (MCF7; [6]): 26.1 ± 1.1%

MPACRLGPLAAALLLSLLLFGFTLVSGTGAEKTGVCPELQADQNCTQECVSDSECADNLKCCSAGCATFCSLPNDKEGSCPQVNINFPQLGLCRDQCQVDSQCPGQMKCCRNGCGKVSCVTPNF
percentage of EdU-negative (hTERT-HMEC; [7]): 4.52 ± 0.38%
percentage of EdU-negative (hTERT-HMEC; [8]): 4.9 ± 0.49%
percentage of EdU-negative (MCF7; [7]): 25.2 ± 0.76%
percentage of EdU-negative (MCF7; [8]): 25.3 ± 0.99%

MAQHHLWILLLCLQTWPEAAGKDSEIFTVNGILGESVTFPVNIQEPRQVKIIAWTSKTSVAYVTPGDSETAPVVTVTHRNYYERIHALGPNYNLVISDLRMEDAGDYKADINTQADPYTTTKRYNLQIYRRLGKPKITQSLMASVNSTCNVTLTCSVEKEEKNVTYNWSPLGEEGNVLQIFQTPEDQELTYTCTAQNPVSNNSDSISARQLCADIAMGFRTHHTGLLSVLAMFFLLVLILSSVFLFRLFKRRQGRIFPEGSCLNTFTKNPYAASKKTIYTYIMASRNTQPAESRIYDEILQSKVLPSKEEPVNTVYSEVQFADKMGKASTQDSKPPGTSSYEIVI [Q9UIB8]
percentage of EdU-negative (hTERT-HMEC; [1]): 4.54 ± 0.35%
percentage of EdU-negative (hTERT-HMEC; protein concentration 0.225 µM): 5.92 ± 0.51%
percentage of EdU-negative (MCF7; [1]): 27.3 ± 3%
percentage of EdU-negative (MCF7; protein concentration 0.225 µM): 26.8 ± 1.5%
